Consider 74 sequences from the supplement of paper PMC12636428.

For this series, the system named is Saccharomyces cerevisiae. The experiment in a line: transcriptional activation domain activity (GFP:mCherry ratio, weighted mean of sorted bins, harmonized to initial dataset scale) (arbitrary fluorescence ratio units); higher = stronger transcriptional activation. The settings on record: beta-estradiol 1 µM; induction time 4 h. A digest of the protocol: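 In diploid yeast carrying a GFP reporter, barcoded protein tiles fused to an estradiol-inducible synthetic transcription factor were integrated at the URA3 locus. Cultures diluted 1:5 into SC with 1 uM beta-estradiol were kept at 30 °C for 4 hours, then sorted by GFP:mCherry ratio into 8 bins before barcode sequencing. Tiles with under 50 reads were excluded. The activation activity reported here is the read-weighted mean of bin median fluorescence, averaged across barcodes and linearly rescaled to the initial dataset.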
“MYFASYIFISFFSLFISIIHPFKIYYILLYTHHIIISIQLLLPFHFLTSIILS”: the “transcriptional activation domain activity” value was found to be 80300.
With “GATSTPAATGTTGGLFGSGGTTTGGFGSTSTPAAGGFGSTSTGGGLFGAKPAT” the figure was 21400; with “CFLVLSCRWLLVLPALTYLATSVLYTYDITITVTGQTRSVRLPSSIACILNVA”, 42200.
With “EEEAVVSAATDEAVKEEGRQVDAGSADAGGEAAAPRKKIRKRSKAKPTPEQKL” the figure was 21200; with “ASTAGPAAGGSVSAAPKRRGRPPKRKAEPEQGAEAQPAKKPRGRPRKSAVVEA”, 12000.
Turning to “MYETNLFQWKLSIGFGFVLDYFIGLFLLDFFILDCIFYLLINSAICVFYSLSG”, the “transcriptional activation domain activity” value is 58100.
To “TWILNIPWPQTHMVAVLSLAGFLYFLILDIYEYMCYSYLVLLGTMWFVDIMFF” belongs 73600; to “MPMLLIIFPLLYFLYCIHNLFHIISHYYEVFNTFYIVILHLSFLFYLHFILFH”, 69500.
On to “MRGTSLFLFYFISFLSLFLFQLLHFFFFSYFLFRYFVSIIIIFFLIQVVFGLV”, for which the “transcriptional activation domain activity” value stood at 53200.
Regarding “MAGSFFFSFFFLSLFMLFHFLSLSFLIFFFLSSLSSFAFLLLLISPFGPPNPH”, the “transcriptional activation domain activity” value is 54400.
Regarding “MSSLFFSFQAVQFWFLGFLGLSWFRLVSTSYNIVDFLSFLSVHHHVLSWLGIP”, the “transcriptional activation domain activity” value stood at 63500.
For “VKKKGGSGGIDAGDIWGCNRRGSNFVEVRSMLAKEGGRLLVNVLRDMIDGTVR”, the “transcriptional activation domain activity” value was 65900.
To “MNDKVVSCETRRRRKAREGREKRGKGEERGEKREGRRERGEREREKRKERGRE” belongs 25300; to “AATNKYDATIQRMLSRSVFVTCNSWYRVGGTGKNTSIFPGPGMLFWWWTRQAR”, 61100; to “MSSLFFLRSPCFYLYLYHYLVSFLIFMAFCLVCCLPLLFHFWVFCLLLCFRIY”, 63600.
With “SDDDEPPAKAAPKPKPRPVGKAKAKAREPEPESDGEVSAVQKKKKRKIGIFQS”, the “transcriptional activation domain activity” value is 37600.
As for “MLTIYFPLLLFLCFHFFNRVKVWWVWVWGRVKLGWVYWFLYLCIWKGGWIRNR”, the “transcriptional activation domain activity” value was 48300.
In the case of “HISCLIISVFLCELMVHIPLSTLFYVGLYFPVHFISTPGYFYFIYCILFQLFL”, the “transcriptional activation domain activity” value was found to be 47300.
On to “QTPTDPESYWSDNRCKHSDCQELSPFASVFDLIDHYDHTHAFIPETLVKYSYI”, for which the “transcriptional activation domain activity” value was 17600.
Turning to “ERSILWRAYLRLISHINSIYKIRIAYEWTEDFVIKYLWSAAGYCLISVPVLLT”, the “transcriptional activation domain activity” value was determined as 54200.
For the sequence “CDNIYLQQDQCGYVLEHCMDATPGLFNYIQLYYCSSFRPLVFIFMCGWLLFLF”, the “transcriptional activation domain activity” value came out at 54900.
To “EQEEEEEEEEAKQPKKKRAKKWFEDESSGDEDTGDRKKKKRKARAAAAAAAAA” belongs 41300; to “ALGLLFVCEQIELYPQTARIFGLRLIYVILLLHLFLPFTDSLPWLKTLFSILT”, 54600; to “ELNEYLDLFKNNFLPHFPIIHPSLLDLDLDSLQRYTNEDGYDDAENAQLFDRL”, 117000.
Turning to “NLCMQLLVAPTRDEIDAAHRRKIWLDVGIQSWRNLTNIMPSRMWIWIILLLSS”, the “transcriptional activation domain activity” value stood at 34900.
In the case of “MQSKAFSFLLSHISLIGFFFTFYEVLLLQFWFLFSLIFIPSYLLMLIVHLFLL”, the “transcriptional activation domain activity” value was found to be 49000.
For “YKTTMARLIYLMDDKFKLFDHLRALKKYLLLGQGDFIALLMESLASNLDRPAN”, the “transcriptional activation domain activity” value was 55100.
To “TIMYGVRFVVVLLTMEIMIHFMYMVAIFHAKPDWSAYTPFQLSMLGYFNLNHI” belongs 46200; to “LLYLPAVLEIYQDVHRSDLSSTVSWETFVAKIFEWMELQYVWPIAGKLLVTIF”, 74800.
“ELLLLWYIYFLGIQYAQDFCQYKKMLILTEDTMWGWDLYSFYNSIVFHGTGVP”: the “transcriptional activation domain activity” value was 75000.
For “MFLEGVLQFVFFFFFFFPVYLSTFIFKFLAVGFLGSYLFLLVQLMQLIHSLIL”, the “transcriptional activation domain activity” value was found to be 31900.
On to “LCAEEYRWHWRAFLTGGGSAFWLLAYGLFFWASRLSLHSMSSAILYLGYLFLL”, for which the “transcriptional activation domain activity” value is 77800.
As to “MDTTDASRGRSKACTYCNKSKTKCMWAGEPGAGACQRCTRLRRSCILPEKGER”, the “transcriptional activation domain activity” value worked out at 10200.
To “MVLPYVLFNNTRQLLKVWYESLKAIVLLYQKIKIIFRYIFMYTLASLLLLFYF” belongs 45300; to “SASSSAPRKPVSISIGGGGGGAAAAAAAPPADKKPVSISIGGSSAKAAAPAAA”, 38800; to “EAARKETDAEGVRKTKVKKSRKRKAPEDGLEADEEGAARRTARARKTPAEAEA”, 28700.
Consider “SFNLLLYGCVLADIGINLSFSCAVSYSHNRKASDVPHILELLFICMLQCCYIG”, for which the “transcriptional activation domain activity” value worked out at 60000.
Consider “IDSEAEDASRNGKIPKGKKSKKNHCESETEEVIEKQPASTTQKSSKKKHCMRK”, for which the “transcriptional activation domain activity” value turned out to be 19600.
As for “NLSPLVLPLWVQLNIYFGIVFLWILAPLVFYYNVWNAQSFPFLSNSIFQLLPN”, the “transcriptional activation domain activity” value amounted to 64600.
To “VDNLLLPLAIHHRFLSYCLYIIGFVYFVYSLEKGHYKFQFTQFCITHMTLFLV” belongs 50900.
With “RLEASKKRKARVEVDIVLERDCVVEGGEVRGRMEVRVHGSKRSEGLRVGAGKI” the figure was 44400; with “PSSTARRKLLLIYIDFKFFLAASWFRLCNLTLIGSVWWPIWGYMCWILSGPLF”, 67300.
As for “RDMLIDTYLTPENLYDVHGPGVPVKTLEIATALVDIVGQYDHNMKLEAWNVLH”, the “transcriptional activation domain activity” value was determined as 50000.
Take “MFSYFVFLLTIVTFFHLIISFCFVFRCHYIVLLLLLQNVFIFCLFAHHCYIHV”: the “transcriptional activation domain activity” value was found to be 31400.
Turning to “ITQMQQTDFYHVDQDDYVHSFVIHNSRLMWNVAIRAIVMRFIELQSQASLLQY”, the “transcriptional activation domain activity” value stood at 51800.
Turning to “GYVYVSGFLALVIVVSTYFYMLSRLVLLVLPFLYLRSLSPAAYHVVHWTSFIP”, the “transcriptional activation domain activity” value turned out to be 61000.
With “MVLVLLWTVEPFIFLFNLLLLILLMVWLPLILLFKLLFLNNITFLSFMIPNQL” the figure was 45000.
In the case of “EYLDKLLAEFEEFDYSINRVLPDVIDFSALIGQDSSANNQIFSSEFSSDPTVN”, the “transcriptional activation domain activity” value worked out at 139000.
To “IYVIGCQPRFKTKLVEDKAEKRKCRIVLVPIFSETGVLVLLNIRTLEVRTVRF” belongs 51700.
Take “MILHSSYLPLGVPPFSIYYILHTLGHSINKITKLLLSNLILRFLNCCTQLIVR”: the “transcriptional activation domain activity” value came to 53400.
Take “VLHVLILHLPCCPSPNFLLAPDTTLPLSTLLWYEFSRTLFPVLLFYLPAFLIS”: the “transcriptional activation domain activity” value came out at 72100.
To “SYQHLHSVMKVINCLNLMLVVCYFSDVRYLKVLVKFWNELHNDVVSRNKLIIV” belongs 42300; to “ENSEDALHNSETMDLLGTLSHGNDFALEYNFDFTLLNEIDMLIGGNTNDGLSK”, 101000; to “FIRSQLGSVMPTIALSLMKDVLFRLEQLFLNRECHEWPVALAVLIIVLMTIES”, 52800.
Regarding “TDAGPGEEDEEVVHEVRAKALRHVPVKPDDDADSKKKNNSPWQPEGLGPLRIL”, the “transcriptional activation domain activity” value is 34200.
Consider “EVVLLPDLCGFCCFSMRFVVLLDLIGTLTLPVTACYLVYLIYVIASGNGPFPL”, for which the “transcriptional activation domain activity” value was determined as 46800.
Regarding “GRTLSRYEPTNVCVVLILIWLGIYHYFLQVLQVRTHATARKIVLLYGWYTLRI”, the “transcriptional activation domain activity” value was 53400.
For “RLHTLRMPISWPLLGLARRRLASLRTFAVWIKPRHSSLTAAERLAFTQFLAAH”, the “transcriptional activation domain activity” value is 79000.
To “EIAVEEPAQPMDVDGAVEAETDATTSKQDKKDKKKKKKASKESKVEAEPEAAA” belongs 48700; to “PFFRVHHLYLPSLLQVVNLAILTSHALFNFIPHFYIVCIIVFWEGLLGGLVYV”, 60500; to “PDLSIYMVDAFVHVLITAGLRDSAAVLHERIMSEFLDRILLILRAAVRLNKII”, 62400.
As to “ANPLSDSASFLSEENEDDAFGALNYNSLDATTMSAFDNNVDPFNILKSSPAQD”, the “transcriptional activation domain activity” value worked out at 66600.
“PHHKWLVPTPFASHAFHPVDGYAQSVPYHLFVFLFPMHRLLYLILFVAVNFWS”: the “transcriptional activation domain activity” value was found to be 48000.
As to “HSSSPEDQERKRSKSRLRDAAAAGAAALGVNEYENRKDRKKRERRRERSERRY”, the “transcriptional activation domain activity” value turned out to be 24200.
On to “MPDVIFKPPPADPCHYDMCLVLYYSVLFSHFIVGFFLRVLHLWCSLLHFYSRI”, for which the “transcriptional activation domain activity” value was 63500.
With “AEYDVVLLKRLLYELNGRRNRLMVLPSRLALWEIVMPWVIDLVCRVRFNVTYT”, the “transcriptional activation domain activity” value is 64600.
As to “APPPPQPAPPVSVAPSKKTSKSKVDAPASNNEPEPVSAPKKGRKGKSKAIAQT”, the “transcriptional activation domain activity” value came out at 12200.
To “QTWGVYKRTGGINMYIVSIWVNWFANSIIGILSWLYLWGTIETSFWFFFFLLL” belongs 75500; to “MDEDEDENENENENSKPPPPLPALPPHPHPHPHPHPHPHPQPQQPQSSSTTNE”, 40800.
To “QILICVIYVLVAYSRDDTSWSRVCYFMPCAPQSIKERDQAFSLFAGIFSFVVV” belongs 39200; to “MDEEADEKGGKRRTSRACDGCRRRKIRCIASGEANSSEKAPCVNCAQSKLSCT”, 27500; to “MFFLFFLLVSWWLCYLLLMASSFLIVGGMYLLALCPPLGCIGDLVVPFYFLFL”, 81700.
On to “TIPGLIRTSPRFGIMLLCLLLSIIFLFTDVIFMIVVSRRGGMNPFWRLALVFK”, for which the “transcriptional activation domain activity” value turned out to be 52600.
With “GEKGRKGGAEEGERRREEGGGRRRDEGERRGEGGAGSREGTGRAGEQGERGSR” the figure was 19200.
